For 6 molecules, Kd results are on record in article PMC3005221 (Biochemistry, 2010).

What all share (test): fluorescence polarisation
Test [1] deals with (His)6-tagged Ubp-M BUZ domain (UniProt Q9Y5T5 22-143).
Target sequence in this assay (Q9Y5T5 22-143): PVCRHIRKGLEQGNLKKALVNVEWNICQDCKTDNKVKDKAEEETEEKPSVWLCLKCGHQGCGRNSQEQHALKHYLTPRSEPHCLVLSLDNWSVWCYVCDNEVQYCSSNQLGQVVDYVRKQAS
Test [2] deals with T1, HDAC6 BUZ domain (without GST tag) (UniProt Q9UBN7 1059-1215).
T1 sequence (looked up): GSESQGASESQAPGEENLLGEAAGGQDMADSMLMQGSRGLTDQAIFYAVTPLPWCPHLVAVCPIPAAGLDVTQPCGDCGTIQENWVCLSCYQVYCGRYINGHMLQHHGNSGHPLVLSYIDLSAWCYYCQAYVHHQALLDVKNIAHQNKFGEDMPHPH

For test [3], the target named is (His)6-tagged Ubp-M BUZ domain (UniProt Q9Y5T5 22-143). The source holds these as a separate data set.
Target sequence in this assay (Q9Y5T5 whole entry, looked up, the tested form may be a part): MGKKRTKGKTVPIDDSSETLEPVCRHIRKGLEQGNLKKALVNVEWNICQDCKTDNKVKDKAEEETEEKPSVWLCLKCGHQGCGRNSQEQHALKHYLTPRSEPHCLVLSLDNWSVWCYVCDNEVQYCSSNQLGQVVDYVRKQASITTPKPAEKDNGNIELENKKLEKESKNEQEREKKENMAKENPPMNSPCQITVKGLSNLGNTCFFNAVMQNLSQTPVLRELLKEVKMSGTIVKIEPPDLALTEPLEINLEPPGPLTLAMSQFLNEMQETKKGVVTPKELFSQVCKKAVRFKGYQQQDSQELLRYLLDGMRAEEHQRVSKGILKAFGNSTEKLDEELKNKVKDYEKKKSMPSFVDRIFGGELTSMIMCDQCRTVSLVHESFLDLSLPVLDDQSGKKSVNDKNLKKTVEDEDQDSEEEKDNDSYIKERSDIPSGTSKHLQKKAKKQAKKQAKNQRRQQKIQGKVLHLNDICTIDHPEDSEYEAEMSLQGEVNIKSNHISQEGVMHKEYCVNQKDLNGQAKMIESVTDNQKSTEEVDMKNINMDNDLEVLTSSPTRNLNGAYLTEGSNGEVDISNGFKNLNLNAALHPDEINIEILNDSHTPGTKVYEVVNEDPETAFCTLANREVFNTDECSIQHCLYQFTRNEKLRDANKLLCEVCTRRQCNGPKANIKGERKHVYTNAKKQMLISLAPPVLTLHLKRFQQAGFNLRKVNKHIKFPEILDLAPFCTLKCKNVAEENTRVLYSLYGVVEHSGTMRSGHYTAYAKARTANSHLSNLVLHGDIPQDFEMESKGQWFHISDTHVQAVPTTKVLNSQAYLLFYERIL
Test [4] has as its target GST-HDAC6 BUZ (UniProt Q9UBN7 1059-1215).

[ ]: non-standard residue; d: D form. The star is where a group is joined. FITC = O=C1OC2(c3ccc(O)cc3Oc3cc(O)ccc32)c2ccc(NC(=S)*)cc21; Abu = CC[C@H](N)C(=O)O; βAla = NCCC(=O)O

B1: FITC-β-Ala-β-Ala-LQDGF (peptide)
peptide: {FITC-βAla-βAla}-LQDGF-OH
SMILES: CC(C)C[C@H](NC(=O)CCNC(=O)CCNC(=S)Nc1ccc2c(c1)C(=O)OC21c2ccc(O)cc2Oc2cc(O)ccc21)C(=O)N[C@@H](CCC(N)=O)C(=O)N[C@@H](CC(=O)O)C(=O)NCC(=O)N[C@@H](Cc1ccccc1)C(=O)O
For the molecule B1, the Kd in test [1] was above 150 µM.

B2: FITC-β-Ala-β-Ala-IAKGG (peptide)
peptide: {FITC-βAla-βAla}-IAKGG-OH
SMILES: CC[C@H](C)[C@H](NC(=O)CCNC(=O)CCNC(=S)Nc1ccc2c(c1)C(=O)OC21c2ccc(O)cc2Oc2cc(O)ccc21)C(=O)N[C@@H](C)C(=O)N[C@@H](CCCCN)C(=O)NCC(=O)NCC(=O)O
In test [1], B2 displayed a Kd of 12 ± 3 µM.

B3: FITC-β-Ala-β-Ala-YGFGG (peptide)
peptide: {FITC-βAla-βAla}-YGFGG-OH
SMILES: O=C(O)CNC(=O)CNC(=O)[C@H](Cc1ccccc1)NC(=O)CNC(=O)[C@H](Cc1ccc(O)cc1)NC(=O)CCNC(=O)CCNC(=S)Nc1ccc2c(c1)C(=O)OC21c2ccc(O)cc2Oc2cc(O)ccc21
Molecule B3 registered a Kd in test [1] of 13 ± 3 µM.

B4: FITC-β-Ala-β-Ala-NALGG (peptide)
peptide: {FITC-βAla-βAla}-NALGG-OH
SMILES: CC(C)C[C@H](NC(=O)[C@H](C)NC(=O)[C@H](CC(N)=O)NC(=O)CCNC(=O)CCNC(=S)Nc1ccc2c(c1)C(=O)OC21c2ccc(O)cc2Oc2cc(O)ccc21)C(=O)NCC(=O)NCC(=O)O
On to B4, for which the results for the Kd in test [2] and in test [1] were 0.23 ± 0.02 µM and 33 ± 7 µM, respectively.

B5: FITC-β-Ala-β-Ala-RGMGG (peptide)
peptide: {FITC-βAla-βAla}-RGMGG-OH
SMILES: CSCC[C@H](NC(=O)CNC(=O)[C@H](CCCNC(=N)N)NC(=O)CCNC(=O)CCNC(=S)Nc1ccc2c(c1)C(=O)OC21c2ccc(O)cc2Oc2cc(O)ccc21)C(=O)NCC(=O)NCC(=O)O
In turn, B5 yielded a Kd in test [1] of 17 ± 3 µM.

B6: FITC-β-Ala-β-Ala-YUIGG (peptide)
chain: {FITC-βAla-βAla}-Y[Abu]IGG-OH
SMILES: CC[C@H](NC(=O)[C@H](Cc1ccc(O)cc1)NC(=O)CCNC(=O)CCNC(=S)Nc1ccc2c(c1)C(=O)OC21c2ccc(O)cc2Oc2cc(O)ccc21)C(=O)N[C@H](C(=O)NCC(=O)NCC(=O)O)[C@@H](C)CC
For the molecule B6, the Kd stood at 12 ± 2 µM in test [3] and 1.3 ± 0.1 µM in test [4].

What is called Kd is the constant that tells how readily two partners part at equilibrium. A low value points to a tighter complex.
